Reference: publication PMC5345052, “Auto-phosphorylation Represses Protein Kinase R Activity” (Scientific Reports, 2017)

B1: full-length PKR with N-terminal split Venus V1 tag [human] / truncated PKR kinase domain with N-terminal split Venus V2 tag [human] (parent)
chain 1: MAGDLSAGFFMEELNTYRQKQGVVLKYQELPNSGPPHDRRFTFQVIIDGREFPEGEGRSKKEAKNAAAKLAVEILNKEKKAVSPLLLTTTNSSEGLSMGNYIGLINRIAQKKRLTVNYEQCASGVHGPEGFHYKCKMGQKEYSIGTGSTKQEAKQLAAKLAYLQILSEETSVKSDYLSSGSFATTCESQSNSLVTSTLASESSSEGDFSADTSEINSNSDSLNSSSLLMNGLRNNQRKAKRSLAPRFDLPDMKETKYTVDKRFGMDFKEIELIGSGGFGQVFKAKHRIDGKTYVIKRVKYNNEKAEREVKALAKLDHVNIVHYNGCWDGFDYDPETSDDSLESSDYDPENSKNSSRSKTKCLFIQMEFCDKGTLEQWIEKRRGEKLDKVLALELFEQITKGVDYIHSKKLIHRDLKPSNIFLVDTKQVKIGDFGLVTSLKNDGKRTRSKGTLRYMSPEQISSQDYGKEVDLYALGLILAELLHVCDTAFETSKFFTDLRDGIISDIFDKKEKTLLQKLLSKKPEDRPNTSEILRTLTVWKKSPEKNERHTC
chain 2: TVDKRFGMDFKEIELIGSGGFGQVFKAKHRIDGKTYVIKRVKYNNEKAEREVKALAKLDHVNIVHYNGCWDGFDYDPETSDDSLESSDYDPENSKNSSRSKTKCLFIQMEFCDKGTLEQWIEKRRGEKLDKVLALELFEQITKGVDYIHSKKLIHRDLKPSNIFLVDTKQVKIGDFGLVTSLKNDGKRTRSKGTLRYMSPEQISSQDYGKEVDLYALGLILAELLHVCDTAFETSKFFTDLRDGIISDIFDKKEKTLLQKLLSKKPEDRPNTSEILRTLTVWKKSPEKNERHTC

Variants of: B1
Experiment: split Venus fluorescence complementation in HEK293 cells
[1] = 20 ng/well of each construct, 5 μM of 2AP, n = 3, read off a plot
[2] = 20 ng/well of each construct, n = 7, read off a plot

| response [1] | response [2] | response (20 ng/well of full-length PKR and 30 ng/well of the truncated KD, n = 7, read off a plot) | Variant |
| --- | --- | --- | --- |
| 2.9 | 2.5 | – | chain 1 S33E H37R T42E |
| 2.7 | 2.5 | – | chain 1 H37R |
| 4.7 | 3 | – | chain 1 S33A H37R T42A |
| – | – | 4.2 | chain 2 K39R |
